In IntAct's records for PubMed 24793651:

B1: Autophagy-related protein 13 (Saccharomyces cerevisiae), Q06628 (parent)
chain: MVAEEDIEKQVLQLIDSFFLKTTLLICSTESSRYQSSTENIFLFDDTWFEDHSELVSELPEIISKWSHYDGRKELPPLVVETYLDLRQLNSSHLVRLKDHEGHLWNVCKGTKKQEIVMERWLIELDNSSPTFKSYSEDETDVNELSKQLVLLFRYLLTLIQLLPTTELYQLLIKSYNGPQNEGSSNPITSTGPLVSIRTCVLDGSKPILSKGRIGLSKPIINTYSNALNESNLPAHLDQKKITPVWTKFGLLRVSVSYRRDWKFEINNTNDELFSARHASVSHNSQGPQNQPEQEGQSDQDIGKRQPQFQQQQQPQQQQQQQQQQQRQHQVQTQQQRQIPDRRSLSLSPCTRANSFEPQSWQKKVYPISRPVQPFKVGSIGSQSASRNPSNSSFFNQPPVHRPSMSSNYGPQMNIEGTSVGSTSKYSSSFGNIRRHSSVKTTENAEKVSKAVKSPLQPQESQEDLMDFVKLLEEKPDLTIKKTSGNNPPNINISDSLIRYQNLKPSNDLLSEDLSVSLSMDPNHTYHRGRSDSHSPLPSISPSMHYGSLNSRMSQGANASHLIARGGGNSSTSALNSRRNSLDKSSNKQGMSGLPPIFGGESTSYHHDNKIQKYNQLGVEEDDDDENDRLLNQMGNSATKFKSSISPRSIDSISSSFIKSRIPIRQPYHYSQPTTAPFQAQAKFHKPANKLIDNGNRSNSNNNNHNGNDAVGVMHNDEDDQDDDLVFFMSDMNLSKEG
partner: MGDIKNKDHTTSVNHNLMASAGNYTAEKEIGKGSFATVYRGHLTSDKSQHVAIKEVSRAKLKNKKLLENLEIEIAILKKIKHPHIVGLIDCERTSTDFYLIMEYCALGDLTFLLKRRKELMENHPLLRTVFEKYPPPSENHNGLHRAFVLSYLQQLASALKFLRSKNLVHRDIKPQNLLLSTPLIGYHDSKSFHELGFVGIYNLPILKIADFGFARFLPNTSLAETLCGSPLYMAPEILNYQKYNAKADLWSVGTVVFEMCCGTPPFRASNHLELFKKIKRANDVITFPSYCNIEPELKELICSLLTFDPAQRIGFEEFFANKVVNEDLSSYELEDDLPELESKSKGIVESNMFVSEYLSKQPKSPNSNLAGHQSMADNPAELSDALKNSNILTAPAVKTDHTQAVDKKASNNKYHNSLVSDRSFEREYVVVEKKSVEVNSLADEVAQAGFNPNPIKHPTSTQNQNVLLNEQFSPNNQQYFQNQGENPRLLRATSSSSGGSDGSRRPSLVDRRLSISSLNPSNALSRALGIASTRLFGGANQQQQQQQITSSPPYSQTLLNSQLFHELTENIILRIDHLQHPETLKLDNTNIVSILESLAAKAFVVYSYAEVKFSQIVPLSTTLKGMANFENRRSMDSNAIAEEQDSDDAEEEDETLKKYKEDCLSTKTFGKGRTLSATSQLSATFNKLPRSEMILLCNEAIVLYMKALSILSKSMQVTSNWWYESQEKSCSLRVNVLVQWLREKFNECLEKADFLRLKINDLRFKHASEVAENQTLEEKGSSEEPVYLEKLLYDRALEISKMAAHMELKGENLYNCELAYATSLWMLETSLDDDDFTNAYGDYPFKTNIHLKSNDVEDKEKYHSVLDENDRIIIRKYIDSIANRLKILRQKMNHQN
B2: Autophagy-related protein 17 (Saccharomyces cerevisiae), Q06410 (parent)
chain: MNEADVTKFVNNARKTLTDAQLLCSSANLRIVDIKKKLSSWQLSISKLNFLIVGLRQQGKFLYTILKEGIGTKLIQKQWNQAVLVVLVDEMKYWQYEITSKVQRLDGIVNELSISEKDDTDPSKLGDYISRDNVNLLNDKLKEVPVIERQIENIKLQYENMVRKVNKELIDTKLTDVTQKFQSKFGIDNLMETNVAEQFSRELTDLEKDLAEIMNSLTQHFDKTLLLQDKKIDNDEREELFKVVQGDDKELYNIFKTLHEVIDDVDKTILNLGQFLQAKIKEKTELHSEVSEIINDFNRNLEYLLIFKDISNLIDSFKNSCTQDIQTTKELCEFYDNFEESYGNLVLEAKRRKDVANRMKTILKDCEKQLQNLDAQDQEERQNFIAENGTYLPETIWPGKIDDFSSLYTLNYNVKNP
partner: B1 chain
B3: Autophagy-related protein 13 (Saccharomyces cerevisiae), Q06628 (parent)
chain: B1 chain
partner: B2 chain

Variants of: B1
Conditions: with atg1_yeast ATG1, P53104

| effect of a mutation on the interaction | Variant |
| --- | --- |
| disrupting interaction strength | F468A;L472A |

Variants of: B1
Conditions: with atg1_yeast ATG1, P53104
Remark: another data set of the same source

| effect of a mutation on the interaction | Variant |
| --- | --- |
| disrupting interaction strength | L472A |
| disrupting interaction strength | F468A |

Variants of: B1
Conditions: with atg1_yeast ATG1, P53104
Remark: another data set of the same source

| effect of a mutation on the interaction | Variant |
| --- | --- |
| decreasing interaction strength | F468A |

Variants of: B2
Conditions: with atg13_yeast ATG13, Q06628

| effect of a mutation on the interaction | Variant |
| --- | --- |
| decreasing interaction strength | I213A;S216A |
| disrupting interaction strength | D247A;E250A |
| disrupting interaction strength | D247A |
| decreasing interaction strength | L240A;V243A |

Variants of: B3
Conditions: with atg17_yeast ATG17, Q06410

| effect of a mutation on the interaction | Variant |
| --- | --- |
| disrupting interaction strength | R434A;R435A |
| disrupting interaction strength | F430A;I433A |
| disrupting interaction strength | S428A;S429A |

Variants of: B3
Conditions: with atg17_yeast ATG17, Q06410
Remark: another data set of the same source

| effect of a mutation on the interaction | Variant |
| --- | --- |
| disrupting interaction strength | S429D |
